Measured values reported in publication PMC4244197 (Molecular Biology of the Cell, 2014).

Biological target: T1, GST-17NAnk (GST-tagged N-terminal cytosolic domain of zDHHC17, amino acids 11-305) (mouse, UniProt Q80TN5-1 11-305)
T1 sequence (looked up): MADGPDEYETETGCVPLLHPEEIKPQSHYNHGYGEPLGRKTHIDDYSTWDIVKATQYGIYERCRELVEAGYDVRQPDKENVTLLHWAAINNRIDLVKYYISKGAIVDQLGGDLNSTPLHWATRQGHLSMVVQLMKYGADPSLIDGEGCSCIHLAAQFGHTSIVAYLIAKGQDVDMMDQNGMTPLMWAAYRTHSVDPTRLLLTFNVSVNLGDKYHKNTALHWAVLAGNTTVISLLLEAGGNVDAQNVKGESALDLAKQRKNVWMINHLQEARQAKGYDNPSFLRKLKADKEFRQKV
Experiment: pull-down

fold lower binding than nonpalmitoylated Myc-CSP: 6 fold
B1: Myc-tagged CSP, palmitoylated (p) (natural protein, UniProt Q29455 1-198, looked up)
chain: MADQRQRSLSTSGESLYHVLGLDKNATSDDIKKSYRKLALKYHPDKNPDNPEAADKFKEINNAHAILTDATKRNIYDKYGSLGLYVAEQFGEENVNTYFVLSSWWAKALFIFCGLLTCCYCCCCLCCCFNCCCGKCKPKAPEGEETEFYVSPEDLEAQLQSDEREAADTPIVIQPASATETTQLTADSHPSYHTDGFN
modifications: palmitoylated (S-acylated) cysteines, positions not given
